We go through one protein from patent publication US8710032B2, “Inhibitors of the mevalonate pathway of Streptococcus pneumoniae” (Northwestern University, priority 2006, dated 2014).

Substrate in this data set: Nc1ncnc2c1ncn2[C@@H]1O[C@H](COP(=O)(O)OP(=O)(O)OP(=O)(O)O)[C@@H](O)[C@H]1O
As to the kind of experiment: Initial substrate results of analogues with mevalonate kinase (FIG. 8). As to conditions: other: ATP. It is filed as biochemical, Streptococcus pneumoniae. The procedure: FIG. 8. Initial substrate results [analogue] ranged from 2.0-2.5 mM, except #6 (4.2 mM) and #8 (6.2 mM).
A series of compounds related to compounds 4, 5, 23, and 25 can be synthesized as potential competitive or noncompetitive reversible inhibitors of MK and DPM-DC (See, e.g., FIGS. 6-7). The representative synthesis shown (Scheme 4a) is a modification of that shown in Scheme 4, and R is limited only by availability of the corresponding reagent and synthetic technique, as would be understood by those skilled in the art made aware of this invention (e.g., alkyl, vinyl, acetylenyl, aryl, heteroaryl, etc., via Grignard reaction with the corresponding magnesium bromide or chloride).

B1: mevalonate kinase (Streptococcus pneumoniae TIGR4) (protein)
chain: MTKKVGVGQAHSKIILIGEHAVVYGYPAISLPLLEVEVTCKVVPAESPWRLYEEDTLSMAVYASLEYLNITEACIRCEIDSAIPEKRGMGSSAAISIAAIRAVFDYYQADLPHDVLEILVNRAEMIAHMNPSGLDAKTCLSDQPIRFIKNVGFTELEMDLSAYLVIADTGVYGHTREAIQVVQNKGKDALPFLHALGELTQQAEVAISQKDAEGLGQILSQAHLHLKEIGVSSPEADFLVETTLSHGALGAKMSGGGLGGCIIALVTNLTHAQELAERLEEKGAVQTWIESL
Regarding B1, the Km came to 850 µM.
